In paper PMC6213277:

Tests used:
[1] = biological target: McjD-C547 (cys-less McjD with the native cysteine C547 only), labelled with Alexa555 and Alexa647 (Escherichia coli) (UniProt Q9X2W0); assay: FRET or BRET; single-molecule FRET, confocal scanning, 10 ms time resolution; labelled McjD reconstituted in biotin-DOPE proteoliposomes (protein to lipid ~1:1,000 w/w) immobilised through neutravidin on PEG-biotin coverslips; oxygen-free buffer with Trolox; FRET between the single cysteines of the two protomers
[2] = biological target: McjD L67C (single cysteine in cys-less McjD), labelled with Alexa555 and Alexa647 (Escherichia coli) (UniProt Q9X2W0)
[3] = biological target: McjD Y64C (single cysteine in cys-less McjD), labelled with Alexa555 and Alexa647 (Escherichia coli) (UniProt Q9X2W0)

Molecule: McjD-C547 (cys-less McjD with the native cysteine C547 only), labelled with Alexa555 and Alexa647 (from UniProt Q9X2W0 1-580) (natural protein)
- lifetime of the dimerized ATP-free NBD state [1]: 82 ms

Molecule: GGAGHVPEYFVGIGTPISFYG [antibacterial peptide MccJ25]
- mean apparent FRET efficiency E* between the dyes at L67C of the two protomers (opening of the TMD), proteoliposomes, with 10 mM ATP and 200 uM MccJ25 (apo 0.69) [2]: 0.51
- mean apparent FRET efficiency E* between the dyes at L67C of the two protomers (opening of the periplasmic gate of the TMD), detergent, with ATP + MccJ25 (apo 0.95; ATP alone 0.95) [2]: 0.83
- mean apparent FRET efficiency E* between the dyes at Y64C of the two protomers (opening of the TMD), proteoliposomes, with 10 mM ATP and 200 uM MccJ25, first population (apo 0.81 & 0.60) [3]: 0.82
- mean apparent FRET efficiency E* between the dyes at Y64C of the two protomers (opening of the TMD), proteoliposomes, with 10 mM ATP and 200 uM MccJ25, second population (apo 0.81 & 0.60) [3]: 0.52
- mean apparent FRET efficiency E* between the dyes at Y64C of the two protomers (opening of the periplasmic gate of the TMD), detergent, with ATP + MccJ25 (apo 1.07; ATP alone 1.01) [3]: 0.91
